Data: a protein production outcome set (Wang et al. 2014)

Test: label from the status in PepcDB records

Sequence: MRPLEDDEPTVVGPYRLLGRLGSGGMGRVYLGRSAGGRTVAVKIVHPHFALDEEFRARFRREVAAARRVGGAWTAPVLDADPEARVPWVATAYAAGPSLTAAVADGGPLPAHSVRALGAGLGEALAAVHELGLVHRDVKPSNVLLTLDGPLLIDFGIARATGGTSPTQSGGGTASLTSTGVSIGSPGYMSPEQILGKGVTGAADVFSLGAVLAYATTGQPPFPGDSSAALLYKVVHEEPNLDGLDDGELRELVASCLAKDPSARPAPAEVARRLAPEGAARLVTGGWLPGALVERVSRSAVRLLNLEAGESATGASGPVGFSRPSVTAGGDAGVATPASGVFGPPPVMPAPTSPSYPPSPPAPAPAPSPALLSVPGPRHPGPPDDDPGAGTGTTRPPGRLALSVAATSTQGAQGRGRRISCTVALAVAGALAAVTVGSVFVLDLLPGSGNDANNAGGNEASHDPPAATPGGLPARYLGTWEGQAAALDGKLPLGTFRITIKQAKAGQELGRLRQTDALGGVCVDVITLKKVTEKQLVAGSAGAEGNHDGCNPAPTTVTFTPVGDDLDYASKSEESGRPTARLSKVG
- protein production: failed

Sequence: MRPSAPNIWIWKVSNLASDPRETVSGEWYAARSNLSSAARLRHGGTLLLVLDAKDNHVITKAEIKAVEISHRVGTIPREIHFPDGSLFETSDNEGVDRLLGLYLPKRAGFVHRLEQFRPRLIGITAAAVLLAYGTYKLALPAVVELAVAMTPPIVPKIMSASTMQALDQTVFSASELPLEEQNAIRVQFSRIAAHAEGSPEDYKLNFRKGGYIGPNAFALPDGTLVLTDELVELAGGDRQMIIGVLAHEIGHVEYEHSLRQLYRAAGVAGLVMLIAGDVGSAMEDILTQGGGLLALSHSRDAERQADQRSVELMRKADLDPTAIERFFALLEEKLGDKGGTSIISTHPGTPQRRKAIIDYNASLDNKPAGNLEHHHHHH
- protein production: failed

Sequence: MRPTITALVLTYNGERLLDRCLGSLAFCDRILVVDSFSTDATVAIAQAAGAEVLQRKWEGPGPQFAFALEKISDGWIVSLDQDEICSEELRDSILAATAADSGEAGYWIPRRSWYFDRFLKHSGWYPDHLLRLFRAGRMRVEVSGAHYSFHPDGETGTLTGDILHYPYESFRQHLDKVNDYAQKGADDLRAKGKRGGLCAGLCHGAGRFIRIYIIKRGFLDGRAGFINAIHGAFYAFLKHLRIEEGDWGRPFEHKLEHHHHHH
- protein production: not failed

Sequence: MRQARGRVHKNLGARVGSARPRSSLGHRTGIMKGQDMPGTVRLHRVLTTSPEKVYRAFVEADALAKWLPPNGFTCTVDHLEAKVGGTFKMSFRNFTTGGSHAFGGEYLELVPGERLRYTDRFDDPNLPGEIQVTVILKKVSVGTEIDITQAGIPDVIPVEACYLGWQESLRNLAKLVEPEINQ
- protein production: failed

Sequence: MRQIPQNHIHTRSTPFWNKETAPAGIFERHLDKGTRPGVYPRLSVMQGAVKYLGYADEHCSEPEEIMVINAGEFGVFPPEKWHNIEVMTDDTYFNIDFFVAPEVLMEGATSRKVIHAGRE
- protein production: failed

Sequence: MRQKETTATTRFSLLPGSITRFFLLLIIVLLVTMGVMVQSAVNAWLKDKSYQIVDITHAIQKRVDNWRYVTWQIYDNIAATTSPSSGEGLQETRLKQDVYYLEKPRRKTEALIFGSHDNSTLEMTQRMSTYLDTLWGAENVPWSMYYLNGQDNSLVLISTLPLKDLTSGFKESTVSDIVDSRRAEMLQQANALDERESFSNMRRLAWQNGHYFTLRTTFNQPGHLATVVAFDLPINDLIPPGMPLDSFRLEPDATATGNNDNEKEGTDSVSIHFNSTKIEISSALNSTDMRLVWQVPYGTLLLDTLQNILLPLLLNIGLLALALFGYTTFRHFSSRSTENVPSTAVNNELRILRAINEEIVSLLPLGLLVHDQESNRTVISNKIADHLLPHLNLQNITTMAEQHQGIIQATINNELYEIRMFRSQVAPRTQIFIIRDQDREVLVNKKLKQAQRLYEKNQQGRMIFMKNIGDALKEPAQSLAESAAKLNAPESKQLANQADVLVRLVDEIQLANMLADDSWKSETVLFSVQDLIDEVVPSVLPAIKRKGLQLLINNHLKAHDMRRGDRDALRRILLLLMQYAVTSTQLGKITLEVDQDESSEDRLTFRILDTGEGVSIHEMDNLHFPFINQTQNDRYGKADPLAFWLSDQLARKLGGHLNIKTRDGLGTRYSVHIKMLAADPEVEEEEERLLDDVCVMVDVTSAEIRNIVTRQLENWGATCITPDERLISQDYDIFLTDNPSNLTASGLLLSDDESGVREIGPGQLCVNFNMSNAMQEAVLQLIEVQLAQEEVTESPLGGDENAQLHASGYYALFVDTVPDDVKRLYTEAATSDFAALAQTAHRLKGVFAMLNLVPGKQLCETLEHLIREKDVPGIEKYISDIDSYVKSLL
- protein production: failed

Sequence: MRQPAIAAVDLGASKVTCFIMKADGVHRDNRTLTTAGVGYVQSRGVRGGAIVNLDEAAQAIAQAVERAETVAGVSVQGVSVCTAGGQLASHRVHTQVSLGARPIGDGDLSRAIASALAQVRIPGRKPIHLLPIAWSVDGQRGIRDPRAMFGRALGLELLVVSVNENIFHTLAHCVERAHLSFEGIVAAPFASALAALEEDEMDLGAVCIDMGGGSTSVAVFNNGALCHVDSLAVGGGHVTQDIARGLQTSVVGAERIKTLHGSAIASANEDREMIEAPPRGDDPGAGPVIAPRSLLKGIIQPRVEETLELLRERLKASGAPVEPGAGIVLTGGASQLAGVREVAVRVFDRPVRLGRPRRVPHLADAASGPAFCAAAGVLHRTAFGPREAVSSKALAGGVARKRPIDPNASPMAKAAAWLRDNL
- protein production: failed

Sequence: MRQRTIVCPLIQNDGCYLLCKMADNRGVFPGQWALSGGGVEPGERIEEALRREIREELGEQLILSDITPWTFRDDIRIKTYADGRQEEIYMIYLIFDCVSANRDICINDEFQDYAWVAPAALALYDLNVATRHTLALKGLL
- protein production: not failed

Sequence: MRQWIAVFALVGSVAAQAGVADQAAAVSALKEGKLAMDVRSQTDYEAGTVLNAVRVDERRLVNQMKQVLSDRNAVFVIFSSTDSKADKAQEKLRAAGYFSVINGGNYEELHNALYDITDDPAE
- protein production: failed

Sequence: MRREALKNAVLKIMTEKMELKNVTHLEETMRLNQDLYIDSVMMLQLIVYIEMDVKLCVPEDEVDPKAFLTVGSLLDFMEELQPLQDVNVNN
- protein production: failed

Sequence: MRRFALTVALPKGRMFREAYEVLKRAGLDLPEVEGERTLLHGKEGGVALLELRNKDVPIYVDLGIAEIGVVGKDVLLDSGRDLFEPVDLGFGACRLSLIRRPGDTGPIRRVATKYPNFTARLLKERGWAADVVELSGNIELAAVTGLADAVVDVVQTGATLRAAGLVEVEVLAHSTARLVVNRQALKLKRAVLKPLIQRLRELSGS
- protein production: not failed

Sequence: MRRICKVLMVIISIILGSGAPLNMAIPPLLALAAPDTSSSSTMSSSAISKVTDTNVMAVSADVTSTTDTSDTSSSDSTSATSTTTGNDTTETADTAVESGTVGTVAWTIDDAGVLTLSGGSFADLTGKRSPWYDYASSITNIKITDEITVTTASNYGYLFASLANVATVTGLNKLSMSGVTSTQSIFYRDSKLTSVDFGQTDFSTVTTMESMFEGCSVLTKVNTTNWNVSHVKSFKRTFYMCGKLTMLDVSNWDVTQVTNLDSTFSGCSSLPELDVSRWNTANVTTLASTFYSCSSVKIINASGWDTARVTDMTATFMNCTLATELNVSGWDTAKVTSMSRMFFYCENVIQLDVSGWITSQVTSLGSMFQNCSKVVTLDVGTWDTSKVTDMSFLFGGCSSLTTLNLEKWDTGSVTTLYSTFYNCSGLTSLLVDTWDTSKVTNCFWTFGGCSSLTTLNLRSWDLQSATASYGNFFNGSKKLQHLTLGPNFTFHNDKTMYLPEPSKQLPYNGTWQRNNDDPTYTSAELMTNYDGATMAGTYNWVKTSGTVLVKYVDGDGVEIADEETSSGTSGDAYQTTAKTIDGYTLHATPTNATGTYDASTITVTYVYDGNLFFNSSPTMLDFGSHTISGTTETYAPTLDKTLAVQNNGQISSTWNLTAELDSSGFVGADTGKMLLATLYYQTDDGKMTLSPGVAVQVYSQTTTDHKSVDISEHWSSNLGLLLEVPNGAAMADTYQGTISWRLNNTVANN
- protein production: failed

Sequence: MRRKNLFWDDVYKGTPPWDLDHPQPAFEALIKNGEIKPGRALDIGCGRGENAIILAMNGCDVIGIDLAENAISDAKAKATERHVKVKFVVEDALQMNRLFEEGEFDVVIDSGLFHVMMDEQRRVFAQQVHRVLREGGKYFMLCFSDKEPGEYELPRRLSKAEIESTFSPVFDITYIKEAVFDSLLSPSRRKAYLLSATRSLEHHHHHH
- protein production: failed
